Measured values reported in patent US20260242478A1 (published 2026).

Key:
[1] = biological target: T1, anti-CD28 scFv (VH - linker 1 - VL) (biotinylated (site not given)); assay: phage ELISA as before, wells pre-incubated with soluble CD28 (competitor)
[2] = biological target: T1, anti-CD28 scFv (VH - linker 1 - VL); assay: phage ELISA; biotinylated anti-CD28 scFv on neutravidin plate, clonal phage supernatant, anti-M13-HRP detection;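 note: before phage addition, wells were pretreated with soluble CD28 protein in blocking buffer, or with blocking buffer only as the comparison, then phage were added without washing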
Procedure: (§1) Clonal phage were harvested as crude supernatants and screened via standard enzyme linked immunosorbent assays (ELISAs). […] Prior to the addition of clonal phage, wells were incubated with blocking buffer and CD28 soluble protein or blocking buffer alone. Without washing or aspirating, clonal phage supernatants were then added to the wells and incubated for a short time. Wells were then washed followed by detection of bound phage using a horse radish peroxidase conjugated anti-M13 antibody.

[3] = biological target: T2, anti-CD28 scFv (VH - linker 1 - VL) (biotinylated (site not stated)); assay: clonal phage ELISA; captured anti-CD28 scFv pre-incubated with soluble CD28 (competitor), anti-M13-HRP detection;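 note: crude clonal phage supernatants added to wells pretreated with soluble CD28 in blocking buffer, compared against wells given blocking buffer only, then bound phage measured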
T2 construct: Captured as biotinylated scFv on neutravidin coated plates in the clonal phage ELISA
T2 sequence (scFv, as listed by the source): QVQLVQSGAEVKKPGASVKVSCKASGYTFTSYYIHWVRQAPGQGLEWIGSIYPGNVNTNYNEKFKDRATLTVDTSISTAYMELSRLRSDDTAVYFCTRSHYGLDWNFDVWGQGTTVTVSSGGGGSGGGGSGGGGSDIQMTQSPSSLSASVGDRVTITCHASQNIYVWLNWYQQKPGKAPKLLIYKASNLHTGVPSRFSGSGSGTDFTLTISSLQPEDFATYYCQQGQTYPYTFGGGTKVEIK

[4] = biological target: T2, anti-CD28 scFv (VH - linker 1 - VL); assay: clonal phage ELISA; biotinylated anti-CD28 scFv on neutravidin plate, anti-M13-HRP detection;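 note: crude supernatants of phage clones were tested in wells pretreated with blocking buffer either alone or supplemented with soluble CD28 protein before phage addition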
Procedure: as §1

[5] = biological target: T3, Anti-CD28 scFv (VH - linker 1 - VL) (biotinylated (site not stated)); assay: phage ELISA; biotinylated anti-CD28 scFv on neutravidin plate, clonal phage supernatant, anti-M13-HRP;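 note: before the phage were added, wells were pre-incubated with soluble CD28 protein in blocking buffer, or with blocking buffer alone, and were not washed in between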
T3 construct: Biotinylated anti-CD28 scFv captured on neutravidin coated plates in the panning ELISA
T3 sequence (scFv, as listed by the source): as above

[6] = biological target: T3, Anti-CD28 scFv (VH - linker 1 - VL); assay: phage ELISA as above; wells pre-incubated with soluble CD28 as competitor;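 note: crude clonal phage supernatants tested, with bound phage detected by HRP-conjugated anti-M13 antibody, and reference wells given blocking buffer without CD28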
Procedure: as §1

T1 sequence (scFv, as listed by the source): as above

Row | Binder | CD28 scFv signal in presence of CD28 [1] | CD28 scFv signal [2] | CD28 scFv signal in presence of CD28 [3] | CD28 scFv signal [4] | other results
1 | MDWCPRHLWHECFN (tested as crude clonal phage supernatant; not shown: pIII of the bacteriophage to which the peptide is fused) [Phage-78, clonal phage peptide MDWCPRHLWHECFN] | 0.704 | 2.65 | – | – | –
2 | MDWCPRHLWAECFF (tested as crude clonal phage supernatant; not shown: pIII of the bacteriophage to which the peptide is fused) [Phage-86, clonal phage peptide MDWCPRHLWAECFF] | 0.292 | 2.61 | – | – | –
3 | MDWCPRHLWHECFF (tested as crude clonal phage supernatant; not shown: pIII of the bacteriophage to which the peptide is fused) [Phage-92, clonal phage peptide MDWCPRHLWHECFF] | 0.373 | 2.58 | – | – | –
4 | MDWCPRALWHECFN (tested as crude clonal phage supernatant; not shown: pIII of the bacteriophage to which the peptide is fused) [Phage-73, clonal phage peptide MDWCPRALWHECFN] | 0.401 | 2.69 | – | – | –
5 | MDWCPRDMWDQCFD (tested as crude clonal phage supernatant) [Phage-201] | – | – | 0.119 | 2.29 | –
6 | MDWCPRYLWSDCFA (tested as crude clonal phage supernatant; not shown: pIII of the bacteriophage to which the peptide is fused) [Phage-76, clonal phage peptide MDWCPRYLWSDCFA] | 1.53 | 2.73 | – | – | –
7 | MDWCPRDLWTECFA (tested as crude clonal phage supernatant; not shown: pIII of the bacteriophage to which the peptide is fused) [Phage-82, clonal phage peptide MDWCPRDLWTECFA] | 0.151 | 2.63 | – | – | –
8 | MDWCPRAMWDKCFF (tested as crude clonal phage supernatant) [Phage-212] | – | – | 0.094 | 0.985 | –
9 | MDWCPRDLWYQCFN (Clonal phage of the Peptide-9 library) [Phage-311] | – | – | – | – | CD28 scFv signal [5]: 2.35; CD28 scFv signal in presence of CD28 [6]: 0.609
10 | MDWCPMDLWYQCFN (tested as crude clonal phage supernatant; not shown: pIII of the bacteriophage to which the peptide is fused) [Phage-85, clonal phage peptide MDWCPMDLWYQCFN] | 0.187 | 2.62 | – | – | –
11 | MSWCPRDMWFYCYA (tested as crude clonal phage supernatant) [Phage-203] | – | – | 0.174 | 2.25 | –
12 | MDWCPRDLWDECFN (Clonal phage of the Peptide-9 library) [Phage-310] | – | – | – | – | CD28 scFv signal [5]: 2.37; CD28 scFv signal in presence of CD28 [6]: 0.248
13 | IDWCPQDMWFYCFN (tested as crude clonal phage supernatant) [Phage-209] | – | – | 0.16 | 1.42 | –
14 | MDWCPRYMWNECFN (tested as crude clonal phage supernatant) [Phage-215] | – | – | 0.128 | 0.687 | –
15 | MDWCPRALWNVCFN (tested as crude clonal phage supernatant; not shown: pIII of the bacteriophage to which the peptide is fused) [Phage-89, clonal phage peptide MDWCPRALWNVCFN] | 0.472 | 2.6 | – | – | –
16 | MDWCPRDMWFECFA (tested as crude clonal phage supernatant) [Phage-210] | – | – | 0.143 | 1.31 | –
17 | TTWCPTSMWLHCFD (tested as crude clonal phage supernatant) [Phage-221] | – | – | 0.072 | 0.074 | –
18 | MFWCPMDMWDQCFN (tested as crude clonal phage supernatant) [Phage-202] | – | – | 0.207 | 2.26 | –
19 | MDWCPIHLWNECFN (Clonal phage of the Peptide-9 library) [Phage-314] | – | – | – | – | CD28 scFv signal [5]: 2.35; CD28 scFv signal in presence of CD28 [6]: 0.157
20 | MDWCPRDQWHNCFN (tested as crude clonal phage supernatant) [Phage-222] | – | – | 0.078 | 0.2 | –
21 | MDWCPRAMWHECFY (tested as crude clonal phage supernatant) [Phage-207] | – | – | 0.129 | 1.92 | –
22 | FDFCPTTMWTYCQH (tested as crude clonal phage supernatant) [Phage-220] | – | – | 0.081 | 0.086 | –
23 | MDWCPIHLWHYCFN (tested as crude clonal phage supernatant; not shown: pIII of the bacteriophage to which the peptide is fused) [Phage-88, clonal phage peptide MDWCPIHLWHYCFN] | 0.453 | 2.6 | – | – | –
24 | MDWCPRFLWDECFN (tested as crude clonal phage supernatant; not shown: pIII of the bacteriophage to which the peptide is fused) [Phage-83, clonal phage peptide …] | 0.483 | 2.63 | – | – | –
25 | MDWCPRNMWAQCFA (tested as crude clonal phage supernatant) [Phage-199] | – | – | 0.209 | 2.31 | –
26 | MDWCPRYLWHECFA (tested as crude clonal phage supernatant; not shown: pIII of the bacteriophage to which the peptide is fused) [Phage-71, clonal phage peptide MDWCPRYLWHECFA] | 0.429 | 2.63 | – | – | –

Row | Binder | CD28 scFv signal in presence of CD28 [1] | CD28 scFv signal [2] | CD28 scFv signal in presence of CD28 [3] | CD28 scFv signal [4] | other results
27 | TFGCPTTMWNRCFA (tested as crude clonal phage supernatant) [Phage-218] | – | – | 0.068 | 0.181 | –
28 | MDWCPIDLWHLCFY (tested as crude clonal phage supernatant; not shown: pIII of the bacteriophage to which the peptide is fused) [Phage-90, clonal phage peptide MDWCPIDLWHLCFY] | 0.488 | 2.59 | – | – | –
29 | MDWCPRAMWNHCFN (tested as crude clonal phage supernatant) [Phage-198] | – | – | 0.426 | 2.33 | –
30 | NYWCPSSMWNRCLH (tested as crude clonal phage supernatant) [Phage-219] | – | – | 0.088 | 0.158 | –
31 | MDWCPMNMWYQCFN (tested as crude clonal phage supernatant) [Phage-216] | – | – | 0.137 | 0.639 | –
32 | MFWCPFDMWHFCFN (tested as crude clonal phage supernatant) [Phage-200] | – | – | 0.469 | 2.29 | –
33 | MDWCPFYLWDECFN (tested as crude clonal phage supernatant; not shown: pIII of the bacteriophage to which the peptide is fused) [Phage-77, clonal phage peptide MDWCPFYLWDECFN] | 0.291 | 2.67 | – | – | –
34 | MDWCPRHMWNVCFS (tested as crude clonal phage supernatant) [Phage-204] | – | – | 0.13 | 2.25 | –
35 | IHWCPINMWDKCYN (tested as crude clonal phage supernatant) [Phage-206] | – | – | 0.203 | 2.08 | –
36 | MNWCPSYMWDQCFA (tested as crude clonal phage supernatant) [Phage-213] | – | – | 0.105 | 0.854 | –
37 | MDWCPRDLWHECFS (tested as crude clonal phage supernatant; not shown: pIII of the bacteriophage to which the peptide is fused) [Phage-79, clonal phage peptide MDWCPRDLWHECFS] | 0.382 | 2.65 | – | – | –
38 | MFWCPTTMWNRCFT (tested as crude clonal phage supernatant; not shown: pIII of the bacteriophage to which the peptide is fused) [Phage-72, clonal phage peptide MFWCPTTMWNRCFT] | 0.338 | 0.662 | – | – | –
39 | MDWCPKYLWSVCFF (tested as crude clonal phage supernatant; not shown: pIII of the bacteriophage to which the peptide is fused) [Phage-84, clonal phage peptide MDWCPKYLWSVCFF] | 0.826 | 2.62 | – | – | –
40 | MDWCPRHMWYECFF (tested as crude clonal phage supernatant) [Phage-197] | – | – | 0.298 | 2.34 | –
41 | MDWCPTDMWIVCFA (tested as crude clonal phage supernatant) [Phage-208] | – | – | 0.172 | 1.5 | –
42 | ITWCPSSMWNRCFI (tested as crude clonal phage supernatant; not shown: pIII of the bacteriophage to which the peptide is fused) [Phage-70, clonal phage peptide ITWCPSSMWNRCFI] | 0.11 | 0.379 | – | – | –
43 | MDWCPRDLWFLCYN (tested as crude clonal phage supernatant; not shown: pIII of the bacteriophage to which the peptide is fused) [Phage-91, clonal phage peptide …] | 0.424 | 2.59 | – | – | –
44 | MDWCPKDLWYLCFA (tested as crude clonal phage supernatant; not shown: pIII of the bacteriophage to which the peptide is fused) [Phage-87, clonal phage peptide MDWCPKDLWYLCFA] | 0.213 | 2.61 | – | – | –
45 | MDWCPRSHWHVCYN (tested as crude clonal phage supernatant; not shown: pIII of the bacteriophage to which the peptide is fused) [Phage-75, clonal phage peptide MDWCPRSHWHVCYN] | 0.281 | 1.95 | – | – | –
46 | MDWCPTDMWHHCFL (tested as crude clonal phage supernatant) [Phage-205] | – | – | 0.126 | 2.2 | –
47 | MDWCPIHMWADCFA (tested as crude clonal phage supernatant; not shown: pIII of the bacteriophage to which the peptide is fused) [Phage-69, clonal phage peptide MDWCPIHMWADCFA] | 0.143 | 2.46 | – | – | –
48 | MDWCPRSLWNYCFN (Clonal phage of the Peptide-9 library) [Phage-313] | – | – | – | – | CD28 scFv signal [5]: 2.35; CD28 scFv signal in presence of CD28 [6]: 0.209
49 | MDWCPRSLWNYCFA (Clonal phage of the Peptide-9 library) [Phage-316] | – | – | – | – | CD28 scFv signal [5]: 2.32; CD28 scFv signal in presence of CD28 [6]: 0.198
50 | MDWCPRDMWLFCYN (tested as crude clonal phage supernatant; not shown: pIII of the bacteriophage to which the peptide is fused) [Phage-74, clonal phage peptide MDWCPRDMWLFCYN] | 1.02 | 2.71 | – | – | –
51 | MDWCPWDMWDKCFN (tested as crude clonal phage supernatant) [Phage-217] | – | – | 0.108 | 0.586 | –
52 | MDWCPTYMWSECFN (tested as crude clonal phage supernatant) [Phage-214] | – | – | 0.107 | 0.754 | –
